According to patent publication US5876971A, “Thrombin inhibitor from the saliva of protostomia” (Schering Aktiengesellschaft, priority 1992, dated 1999):

Tests used:
thrombin [1] = test: Inhibition of the thrombin activity in the clotting test (fibrinogen cleavage); type: biochemical
Experimental: Inhibition of the thrombin activity in the clotting test
In a microtiterplate, which is coated with bovine serum albumin (0.1% in 0.1 mol/l of NaHCO3, pH 9.5), 80 μl of 20 mmol/l of HEPES, pH 7.4; […] of NaCl; 20 μl of 20 mmol/l of CaCl2; 100 μl of a diluted solution of the protein of the invention (5-50 ng) and 20 μl of thrombin (0.03 IU=0.03 International Units) are pipetted. After an incubation of 2 minutes at 37° C., 100 μl of fibrinogen (5 mg/ml) is added and incubated for 40 minutes at 37° C. Then, the absorption is measured at 405 nm. […] (See FIG. 3)

thrombin [2] = test: Inhibition of the thrombin activity in the amidolytic test (substrate S2238); type: biochemical; conditions: inhibitor 6 nmol/l; thrombin 0.03 IU
Experimental: Inhibition of the thrombin activity in the amidolytic test
In a microtiterplate, 80 μl of 100 mmol/l of tris/HCl, pH 7.4; 150 mmol/l of NaCl and 0.03 IU ([…]) of thrombin and 100 μl of a diluted solution of the protein of the invention (32-630 ng) are incubated for 10 minutes at 37° C. and then mixed with 100 μl (50 nmol) of substrate S2238 (Kabi Vitrum). After an incubation of 30 minutes at 37° C., the absorption is measured at 405 nm. 630 ng (117 nmol/l) inhibits the activity of the thrombin to approximately 50%. […] (See FIG. 2)

thrombin [3] = biological target: thrombin
thrombin [4] = biological target: thrombin; remark: listed apart in the source
thrombin [5] = biological target: thrombin; remark: listed apart in the source
thrombin [6] = biological target: thrombin; remark: listed apart in the source

## hirudin
Thrombin [1]; inhibitor 8 nmol/l (45 ng), thrombin 0.03 IU (1.27 nmol/l), absorption at 405 nm
  inhibition of fibrinogen cleavage (clotting): complete inhibition
Thrombin [2]
  inhibition of thrombin activity in the amidolytic test: 85%

## thrombin inhibitor purified from the saliva of Triatoma pallidipennis (protein of the invention, purified according to Example 1)
Thrombin [3]
  inhibition of the thrombin activity in the clotting test (fibrinogen cleavage, absorption at 405 nm): 8 nmol/L
Thrombin [4]
  inhibition of thrombin-induced blood platelet aggregation (aggregometer): 15 ng/mL
Thrombin [5]
  inhibition of the thrombin activity in the amidolytic test (substrate S2238, absorption at 405 nm); concentration giving approximately 50% inhibition: 117 nmol/L
Thrombin [6]
  lengthening of the thrombin time (plasma clotting after adding thrombin): 35 nmol/L

B1: purified fraction: recombinant mature protein (Ti28=seq. id. no. 2) produced in E. coli, purified by ion exchange and thrombin affinity chromatography (protein)
chain: AEGDDCSLEKAMGDFKPEEFFNGTWYLAHGPDVTSPAVCQKFTTSGSKGFTQIVEIGYNKFESNVKFQCNQVDNKNDEQYSFKCKGSDNTEFEADFTFISVSYDNFALVCRSIIFTSQPKEDDYLVFERTKSDTDPDANEIC
Thrombin [1]; material from transformed E. coli, concentration not given
  inhibition of thrombin activity in the clotting test (qualitative): same inhibitory activity as the saliva protein
